What was measured:
[1] = Mechanical properties of IEIK13 with and without Indigo Carmine; assay type: physicochemical; details: 1.5% IEIK13; 0.00585% Indigo Carmine; 24 hours post reconstitution
Procedure: Indigo carmine powder was used to prepare a 1% solution in deionized (DI) water. Using IEIK13 (SEQ ID NO:2) powder, a 2 percent solution was prepared using DI water. The amount of IEIK13 (SEQ ID NO:2) was weighed out and the appropriate amount of DI water was added gently down the side of the container. Mixing was accomplished by vortexing for about 30 seconds, and then sonicating for 30 seconds. The solution was then centrifuged for about 10 to about 15 minutes at […]. The solution may undergo further vortexing and centrifuging until the solution is clear and without bubbles.
To obtain a final concentration of 0.00585% indigo carmine, the necessary amount of 1% IC is added to the appropriate amount of DI water to dilute 2% IEIK (SEQ ID NO:2) to 1.5% IEIK (SEQ ID NO:2). The solution is then vortexted for about 30 seconds and centrifuged for about 10 to about 15 minutes at 3000 rpm. The solution may undergo further vortexing and centrifuging until the solution is clear and without bubbles.
The solution was allowed to sit overnight at room temperature prior to use. The cap may be left off of the container during preparation to allow more efficient removal of bubbles.
Visualization of hydrogel spreading throughout the lumen of the lungs was necessary for determination of feasibility. Indigo Carmine was chosen as a common contrast reagent. […]

[2] = Rheological measurements of RADA16 with NaCl, KCl, CaCl2 (stiffness, reversibility); assay type: physicochemical
Procedure: In a rheological comparison of […] (SEQ ID NO:1)+NaCl, KCl, and CaCl2), solutions of 0.5% RADA16 (SEQ ID NO:1) mixed with 0.005, 0.05, 0.125, 0.25, 0.5, and 1 M NaCl, KCl, and CaCl2) were prepared. The anion, chloride (Cl−), was kept the same to observe the effect of the cations, sodium (Na+), potassium (K+), and calcium (Ca2+). FIG. 21 provides a basic understanding of how varying the cations of a salt solution effects the viscoelastic properties and the stiffness of self-assembling peptides. […] This should be because Ca has […] higher ionic strength than Na and K at the same molar concentrations. Therefore, influence of salts on the peptide solution is more related to their ionic strength rather than their molar concentration, as shown in FIGS. 17-18 and Table 2a-c. In some embodiments, there is a correlation between the properties of the peptide solutions with salts based on the concentration of the salt.
Rheological measurements of stiffness of 2.5% RADA16 (SEQ ID NO:1) and 2.5% RADA16 (SEQ ID NO:1)+0.25 M CaCl2) was evaluated.
Rheological measurements of reversibility of 0.5% RADA16 (SEQ ID NO:1) solution with +0.125, 0.25, and 0.5 M CaCl2) were evaluated. Solutions of 0.5% RADA16 (SEQ ID NO:1) mixed with 0.125, 0.25, and 0.5 M CaCl2) were prepared. The structure of the self-assembled peptide solutions were disrupted thoroughly by application of mechanical stress through vortexing and sonication. The mixtures were placed at room temperature for 48 hours to allow self-assembly to take place. […] FIG. 23A presents raw rheological data of the control peptide solution with salts and the perturbed peptide solution while FIG. 23B provides a comparison of stiffness of the control peptide solution and the perturbed peptide solution.

Substance	mechanical properties with versus without Indigo Carmine [1]	enhancement of stiffness by Ca compared to Na or K ([2]; 0.5% RADA16, chloride salts at the same molar concentrations)	stiffness with added cation solution versus without ([2]; 2.5% RADA16 with addition of 0.125 M CaCl2)	storage modulus ([2]; about 0.5 w/v percent, calcium chloride about 0.125 M)	storage modulus ([2]; about 0.5 w/v percent, calcium chloride about 0.250 M)	storage modulus ([2]; about 0.5 w/v percent, calcium chloride about 0.500 M)	storage modulus ([2]; about 2.5 w/v percent, calcium chloride about 0.125 M)
Ile-Glu-Ile-Lys-Ile-Glu-Ile-Lys-Ile-Glu-Ile-Lys-Ile [IEIK13]	no significant difference	–	–	–	–	–	–
Arg-Ala-Asp-Ala-Arg-Ala-Asp-Ala-Arg-Ala-Asp-Ala-Arg-Ala-Asp-Ala [PuraMatrix ®]	–	best enhancement of stiffness	noticeable increase in stiffness	about 25 Pa	about 44 Pa	about 52 Pa	about 600 Pa

— US20220160939A1, “SELF-ASSEMBLING PEPTIDES AS BRONCHIAL OBSTRUCTION AGENTS” (3-D MATRIX, LTD., priority 2014, published 2022)
